According to the Human Domainome abundance scans (Beltran et al. 2025):
± gives the uncertainty stated by the source.

B1: Myocardin, residues 363 to 406; numbered along this chain, Q8IZQ8 (parent)
chain: KPGPLPPNLDDLKVSELRQQLRIRGLPVSGTKTALMDRLRPFQD

Variants of: B1
Test: abundance fitness (aPCA) (normalised: wild type 0, dead -1); higher = more abundant; growth selection in yeast, the domain comes from the species named
Conditions: Homo sapiens

| Variant | abundance fitness |
| --- | --- |
| KPGPLPPNLDDLKVSELRQQLRIRGKPVSGTKTALMDRLRPFQD [L26K] | -0.404 ± 0.2 |
| KPGPLPPNLDDLKVSELRQQLRIRGVPVSGTKTALMDRLRPFQD [L26V] | -0.732 ± 0.12 |
| KPGPLPPNLDDLKVSELRQQLRIRGWPVSGTKTALMDRLRPFQD [L26W] | -0.951 ± 0.14 |
| KPGPLPPNLDDLKVSELRQQLRIRGAPVSGTKTALMDRLRPFQD [L26A] | -0.479 ± 0.094 |
| KPGPLPPNLDDLKVSELRQQLRIRGHPVSGTKTALMDRLRPFQD [L26H] | -1.1 ± 0.27 |
| KPGPLPPNLDDLKVSELRQQLRIRGTPVSGTKTALMDRLRPFQD [L26T] | -0.805 ± 0.15 |
| KPGPLPPNLDDLKVSELRQQLRIRGSPVSGTKTALMDRLRPFQD [L26S] | -0.562 ± 0.1 |
| KPGPLPPNLDDLKVSELRQQLRIRGEPVSGTKTALMDRLRPFQD [L26E] | -0.293 ± 0.084 |
| KPGPLPPNLDDLKVSELRQQLRIRGPPVSGTKTALMDRLRPFQD [L26P] | -0.676 ± 0.38 |
| KPGPLPPNLDDLKVSELRQQLRIRGIPVSGTKTALMDRLRPFQD [L26I] | -0.431 ± 0.19 |
| KPGPLPPNLDDLKVSELRQQLRIRGQPVSGTKTALMDRLRPFQD [L26Q] | -0.503 ± 0.14 |
| KPGPLPPNLDDLKVSELRQQLRIRGMPVSGTKTALMDRLRPFQD [L26M] | 0.075 ± 0.13 |
| KPGPLPPNLDDLKVSELRQQLRIRGRPVSGTKTALMDRLRPFQD [L26R] | -0.858 ± 0.083 |
| KPGPLPPNLDDLKVSELRQQLRIRGGPVSGTKTALMDRLRPFQD [L26G] | -0.586 ± 0.12 |
| KPGPLPPNLDDLKVSELRQQLRYRGLPVSGTKTALMDRLRPFQD [I23Y] | 0.013 ± 0.098 |
| KPGPLPPNLDDLKVSELRQQLRWRGLPVSGTKTALMDRLRPFQD [I23W] | -0.291 ± 0.085 |
| KPGPLPPNLDDLKVSELRQQLRRRGLPVSGTKTALMDRLRPFQD [I23R] | -0.211 ± 0.065 |
| KPGPLPPNLDDLKVSELRQQLRARGLPVSGTKTALMDRLRPFQD [I23A] | 0.091 ± 0.062 |
| KPGPLPPNLDDLKVSELRQQLRFRGLPVSGTKTALMDRLRPFQD [I23F] | -0.378 ± 0.26 |
| KPGPLPPNLDDLKVSELRQQLRSRGLPVSGTKTALMDRLRPFQD [I23S] | 0.033 ± 0.067 |

| Variant | abundance fitness |
| --- | --- |
| KPGPLPPNLDDLKVSELRQQLRTRGLPVSGTKTALMDRLRPFQD [I23T] | -0.261 ± 0.18 |
| KPGPLPPNLDDLKVSELRQQLRCRGLPVSGTKTALMDRLRPFQD [I23C] | -0.315 ± 0.47 |
| KPGPLPPNLDDLKVSELRQQLRGRGLPVSGTKTALMDRLRPFQD [I23G] | -0.24 ± 0.06 |
| KPGPLPPNLDDLKVSELRQQLRPRGLPVSGTKTALMDRLRPFQD [I23P] | -0.605 ± 0.12 |
| KPGPLPPNLDDLKVSELRQQLRLRGLPVSGTKTALMDRLRPFQD [I23L] | -0.021 ± 0.099 |
| KPGPLPPNLDDLKVSELRQQLRKRGLPVSGTKTALMDRLRPFQD [I23K] | -0.153 ± 0.084 |
| KPGPLPPNLDDLKVSELRQQLRQRGLPVSGTKTALMDRLRPFQD [I23Q] | -0.229 ± 0.092 |
| KPGPLPPNLDDLKVSELRQQLRNRGLPVSGTKTALMDRLRPFQD [I23N] | -0.45 ± 0.26 |
| KPGPLPPNLDDLKVSELRQQLRERGLPVSGTKTALMDRLRPFQD [I23E] | 0.043 ± 0.12 |
| KPGPLPPNLDDLKVSELRQQLRVRGLPVSGTKTALMDRLRPFQD [I23V] | -0.092 ± 0.061 |
| KPGPLPPNLDDLKVSELRQQLRIRGLPVMGTKTALMDRLRPFQD [S29M] | -0.003 ± 0.14 |
| KPGPLPPNLDDLKVSELRQQLRIRGLPVEGTKTALMDRLRPFQD [S29E] | 0.129 ± 0.074 |
| KPGPLPPNLDDLKVSELRQQLRIRGLPVNGTKTALMDRLRPFQD [S29N] | -0.264 ± 0.21 |
| KPGPLPPNLDDLKVSELRQQLRIRGLPVVGTKTALMDRLRPFQD [S29V] | -0.097 ± 0.079 |
| KPGPLPPNLDDLKVSELRQQLRIRGLPVQGTKTALMDRLRPFQD [S29Q] | 0.006 ± 0.16 |
| KPGPLPPNLDDLKVSELRQQLRIRGLPVHGTKTALMDRLRPFQD [S29H] | -0.108 ± 0.16 |
| KPGPLPPNLDDLKVSELRQQLRIRGLPVYGTKTALMDRLRPFQD [S29Y] | -0.095 ± 0.29 |
| KPGPLPPNLDDLKVSELRQQLRIRGLPVAGTKTALMDRLRPFQD [S29A] | -0.071 ± 0.064 |
| KPGPLPPNLDDLKVSELRQQLRIRGLPVCGTKTALMDRLRPFQD [S29C] | -0.191 ± 0.11 |
| KPGPLPPNLDDLKVSELRQQLRIRGLPVGGTKTALMDRLRPFQD [S29G] | 0.042 ± 0.07 |

| Variant | abundance fitness |
| --- | --- |
| KPGPLPPNLDDLKVSELRQQLRIRGLPVTGTKTALMDRLRPFQD [S29T] | -0.001 ± 0.087 |
| KPGPLPPNLDDLKVSELRQQLRIRGLPVPGTKTALMDRLRPFQD [S29P] | -0.605 ± 0.095 |
| KPGPLPPNLDDLKVSELRQQLRIRGLPVIGTKTALMDRLRPFQD [S29I] | -0.376 ± 0.098 |
| KPGPLPPNLDDLKVSELRQQLRIRGLPVRGTKTALMDRLRPFQD [S29R] | -0.362 ± 0.068 |
| KPGPLPPNLDDLKVSELRQQLRIRGLPVKGTKTALMDRLRPFQD [S29K] | -0.113 ± 0.081 |
| KPGPLPPNLDDLKVSELRQQLRIRGLPVLGTKTALMDRLRPFQD [S29L] | -0.333 ± 0.093 |
| KPGPLPPNLDDLKVSELRQQLRIRGLPVFGTKTALMDRLRPFQD [S29F] | -0.245 ± 0.32 |
| KPGPLPPNLDDLKVSELRQQLRIRELPVSGTKTALMDRLRPFQD [G25E] | -0.274 ± 0.1 |
| KPGPLPPNLDDLKVSELRQQLRIRFLPVSGTKTALMDRLRPFQD [G25F] | -0.175 ± 0.38 |
| KPGPLPPNLDDLKVSELRQQLRIRALPVSGTKTALMDRLRPFQD [G25A] | -0.39 ± 0.084 |
| KPGPLPPNLDDLKVSELRQQLRIRPLPVSGTKTALMDRLRPFQD [G25P] | -0.591 ± 0.12 |
| KPGPLPPNLDDLKVSELRQQLRIRNLPVSGTKTALMDRLRPFQD [G25N] | -0.024 ± 0.18 |
| KPGPLPPNLDDLKVSELRQQLRIRMLPVSGTKTALMDRLRPFQD [G25M] | -0.358 ± 0.14 |
| KPGPLPPNLDDLKVSELRQQLRIRTLPVSGTKTALMDRLRPFQD [G25T] | -0.56 ± 0.1 |
| KPGPLPPNLDDLKVSELRQQLRIRDLPVSGTKTALMDRLRPFQD [G25D] | -0.246 ± 0.16 |
| KPGPLPPNLDDLKVSELRQQLRIRSLPVSGTKTALMDRLRPFQD [G25S] | -0.318 ± 0.12 |
| KPGPLPPNLDDLKVSELRQQLRIRLLPVSGTKTALMDRLRPFQD [G25L] | -1.12 ± 0.35 |
| KPGPLPPNLDDLKVSELRQQLRIRVLPVSGTKTALMDRLRPFQD [G25V] | -1.38 ± 0.3 |
